US20260274955A1 (JANUX THERAPEUTICS, published 2026)

How the values were obtained:
[1] = target: T1, anti-CD28 Fab (SEQ ID NOs: 202, 203); test: phage binding ELISA; biotinylated Fab on neutravidin plate;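 also: clonal phage supernatants added to Fab wells pretreated with CD28 antigen or with blocking buffer only, bound phage read out via HRP-linked anti-M13 antibody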
T1 construct: biotinylated and captured on neutravidin coated plates in the phage ELISA
Method: (§1) Clonal phage were harvested as crude supernatants and screened via standard ELISAs. […] Prior to the addition of clonal phage, wells were incubated with blocking buffer and CD28 antigen or blocking buffer alone. Without washing or aspirating, clonal phage supernatants were then added to the wells and incubated for a short time. Wells were then washed followed by detection of bound phage using a horse radish conjugated anti-M13 antibody.

[2] = target: T1, anti-CD28 Fab (SEQ ID NOs: 202, 203); test: phage binding ELISA; Fab wells pre-incubated with CD28 antigen (competitor);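 also: clonal phage supernatants added to wells preincubated with CD28 antigen in blocking buffer versus blocking buffer alone, washed, bound phage read by HRP-conjugated anti-M13 antibody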
Method: as §1

[3] = target: Anti-CD28 Fab (SEQ ID NOs: 202, 203); test: phage binding ELISA on captured Fab;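 also: clonal phage supernatants added briefly to wells pre-incubated with CD28 antigen or with blocking buffer only, then washed, bound phage read by ELISA using HRP-coupled anti-M13 antibody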
Method: as §1

[4] = target: Anti-CD28 Fab (SEQ ID NOs: 202, 203); test: phage binding ELISA on captured Fab; competitor CD28 antigen;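 as to Anti-CD28 Fab signal in the presence of CD28: wells pretreated with CD28 antigen in blocking buffer or buffer only, then clonal phage supernatants added briefly without washing, bound phage detected via horseradish-conjugated anti-M13 antibody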
Method: as §1

Chain of Anti-CD28 Fab (SEQ ID NOs: 202, 203) (VH, as listed by the source, chain 1 of 2): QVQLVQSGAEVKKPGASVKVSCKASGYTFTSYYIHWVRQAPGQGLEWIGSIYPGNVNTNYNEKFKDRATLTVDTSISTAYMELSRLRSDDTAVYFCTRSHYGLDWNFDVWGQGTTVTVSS
Chain of Anti-CD28 Fab (SEQ ID NOs: 202, 203) (VL, as listed by the source, chain 2 of 2): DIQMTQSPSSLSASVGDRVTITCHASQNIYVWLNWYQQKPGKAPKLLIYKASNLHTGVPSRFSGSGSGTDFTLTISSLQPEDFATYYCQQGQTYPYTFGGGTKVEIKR
T1 sequence (VH, as listed by the source, chain 1 of 2): as the sequence (VH, as listed by the source, chain 1 of 2) above
T1 sequence (VL, as listed by the source, chain 2 of 2): as the sequence (VL, as listed by the source, chain 2 of 2) above

| Binder | Anti-CD28 Fab (SEQ ID NOs: 202, 203) signal [1] | Anti-CD28 Fab signal in the presence of CD28 [2] | Anti-CD28 Fab signal [3] | Anti-CD28 Fab signal in the presence of CD28 [4] |
| --- | --- | --- | --- | --- |
| YCDGHLDEYMEKCL [Phage-386] | 1.76 | 0.08 | – | – |
| YCAGHSPLYMLKCL [Phage-442] | 1.7 | 0.1 | – | – |
| YCAGHVPEYMAKCL [Phage-379] | 1.78 | 0.07 | – | – |
| YCEGHSPEYILKCL [Phage-25] | – | – | 1.75 | 0.06 |
| YCEGHRPEYILKCL [Phage-26] | – | – | 1.27 | 0.06 |
| YCDGHSPEYILKCL [Phage-93] | – | – | 2.31 | 0.09 |
| YCEGHSPQYVQKCL [Phage-384] | 1.77 | 0.06 | – | – |
| YCDGHAWEYMTKCL [Phage-448] | 1.69 | 0.35 | – | – |
| YCVGHAPEFMAKCL [Phage-369] | 1.8 | 0.1 | – | – |
| YCDGHTSEYITKCL [Phage-373] | 1.79 | 0.07 | – | – |
| YCAGHLPMYMAKCL [Phage-367] | 1.8 | 0.08 | – | – |
| YCDGHSPEYIAKCL [Phage-374] | 1.79 | 0.23 | – | – |
| YCEGHSPWYMNKCL [Phage-449] | 1.68 | 0.06 | – | – |
| YCEGHEGIYFWKCL [Phage-27] | – | – | 2.07 | 0.06 |
| YCDGHKAEYMEKCL [Phage-366] | 1.81 | 0.09 | – | – |
| YCDGHLPVYLEKCL [Phage-444] | 1.69 | 0.06 | – | – |
| YCAGHLQEYMQKCL [Phage-445] | 1.69 | 0.07 | – | – |
| YCDGLASEYMSKCL [Phage-382] | 1.77 | 0.05 | – | – |
| YCDGHLGVYMAKCL [Phage-372] | 1.79 | 0.07 | – | – |
| YCQGHSAEYMMKCL [Phage-364] | 1.81 | 0.07 | – | – |
| YCAGHLPEYMLKCL [Phage-387] | 1.76 | 0.09 | – | – |
| YCAGHAEQYMAKCL [Phage-370] | 1.8 | 0.08 | – | – |
| YCDGHLPEYMAKCL [Phage-69] | – | – | 2.37 | 0.13 |
| YCEGHLPQYMWKCL [Phage-51] | – | – | 2.44 | 0.17 |
| YCEGHLPEYIWKCL [Phage-43] | – | – | 2.32 | 0.09 |
| YCDGHSPIYMWKCL [Phage-45] | – | – | 2.47 | 0.09 |

| Binder | Anti-CD28 Fab (SEQ ID NOs: 202, 203) signal [1] | Anti-CD28 Fab signal in the presence of CD28 [2] | Anti-CD28 Fab signal [3] | Anti-CD28 Fab signal in the presence of CD28 [4] |
| --- | --- | --- | --- | --- |
| YCEGHAPEYIGKCL [Phage-44] | – | – | 2.1 | 0.07 |
| YCDGHLPQYMEKCL [Phage-47] | – | – | 2.47 | 0.11 |
| YCEGHAPEYIAKCL [Phage-29] | – | – | 2.15 | 0.09 |
| YCEGHLPEYREKCL [Phage-34] | – | – | 1.96 | 0.07 |
| YCEGHAPEYIRKCL [Phage-30] | – | – | 1.63 | 0.08 |
| YCDGHLPEYMEKCL [Phage-50] | – | – | 2.44 | 0.1 |
| YCDGHSAEHMAKCL [Phage-54] | – | – | 2.41 | 0.08 |
| YCDGHLPEYMNKCL [Phage-52] | – | – | 2.43 | 0.13 |
| YCEGHLPEYIQKCL [Phage-42] | – | – | 1.9 | 0.08 |
| YCEGHLPEYMFKCL [Phage-58] | – | – | 2.4 | 0.12 |
| YCEGHLPEYLAKCL [Phage-35] | – | – | 2.34 | 0.1 |
| YCEGHLPEYMAKCL [Phage-57] | – | – | 2.41 | 0.14 |
| YCEGHAPEYIWKCL [Phage-31] | – | – | 1.63 | 0.07 |
| YCEGHLPEYIEKCL [Phage-28] | – | – | 2.06 | 0.08 |
| YCDGHLPQYMAQCL [Phage-59] | – | – | 2.4 | 0.2 |
| YCEGHLPQYMQKCL [Phage-60] | – | – | 2.39 | 0.12 |
| YCAGHLPEYMDKCL [Phage-53] | – | – | 2.42 | 0.12 |
| YCAGHLPQYMAKCL [Phage-55] | – | – | 2.41 | 0.17 |
| YCEGHLPEYLGKCL [Phage-33] | – | – | 1.23 | 0.08 |
| YCEGHAPEYMAKCL [Phage-46] | – | – | 2.47 | 0.08 |
| YCDGHSPEYMWKCL [Phage-49] | – | – | 2.44 | 0.09 |
| YCEGHLPEYRNKCL [Phage-40] | – | – | 2.38 | 0.17 |
| YCAGHAPEYMEKCL [Phage-48] | – | – | 2.45 | 0.09 |
| YCDGHSAEYITKCL [Phage-380] | 1.77 | 0.06 | – | – |
| YCEGHLDEYMWKCL [Phage-381] | 1.77 | 0.06 | – | – |
| YCDGHTREYIDKCL [Phage-368] | 1.8 | 0.08 | – | – |
